The values below are quoted from earlier work in paper PMC4501269 (Biochemistry, 2011).

Where two headings read alike, the source gives them in different places. Some results are limits rather than exact numbers.

Data set [1] has as its target SRC-1 (Homo sapiens) (UniProt Q15788). Description: fluorescence polarization. In general terms: Polarisation of emitted light reports the rotation of a fluorescent probe.
The target in data set [2] is SRC-2 (Homo sapiens) (UniProt Q15596). Description: fluorescence cross-correlation spectroscopy.
For data set [3] the target is unchanged. Nature of the data set: fluorescence cross-correlation spectroscopy. The source holds these as a separate data set.
Data set [4] shares this target. Description: fluorescence cross-correlation spectroscopy. This is another data set of the same source.
Data set [5] addresses SRC-1 (Homo sapiens) (UniProt Q15788).
Data set [6] shares this target. This is another data set of the same source.

Chain of SRC-1 (Homo sapiens) (Q15788 2-1441): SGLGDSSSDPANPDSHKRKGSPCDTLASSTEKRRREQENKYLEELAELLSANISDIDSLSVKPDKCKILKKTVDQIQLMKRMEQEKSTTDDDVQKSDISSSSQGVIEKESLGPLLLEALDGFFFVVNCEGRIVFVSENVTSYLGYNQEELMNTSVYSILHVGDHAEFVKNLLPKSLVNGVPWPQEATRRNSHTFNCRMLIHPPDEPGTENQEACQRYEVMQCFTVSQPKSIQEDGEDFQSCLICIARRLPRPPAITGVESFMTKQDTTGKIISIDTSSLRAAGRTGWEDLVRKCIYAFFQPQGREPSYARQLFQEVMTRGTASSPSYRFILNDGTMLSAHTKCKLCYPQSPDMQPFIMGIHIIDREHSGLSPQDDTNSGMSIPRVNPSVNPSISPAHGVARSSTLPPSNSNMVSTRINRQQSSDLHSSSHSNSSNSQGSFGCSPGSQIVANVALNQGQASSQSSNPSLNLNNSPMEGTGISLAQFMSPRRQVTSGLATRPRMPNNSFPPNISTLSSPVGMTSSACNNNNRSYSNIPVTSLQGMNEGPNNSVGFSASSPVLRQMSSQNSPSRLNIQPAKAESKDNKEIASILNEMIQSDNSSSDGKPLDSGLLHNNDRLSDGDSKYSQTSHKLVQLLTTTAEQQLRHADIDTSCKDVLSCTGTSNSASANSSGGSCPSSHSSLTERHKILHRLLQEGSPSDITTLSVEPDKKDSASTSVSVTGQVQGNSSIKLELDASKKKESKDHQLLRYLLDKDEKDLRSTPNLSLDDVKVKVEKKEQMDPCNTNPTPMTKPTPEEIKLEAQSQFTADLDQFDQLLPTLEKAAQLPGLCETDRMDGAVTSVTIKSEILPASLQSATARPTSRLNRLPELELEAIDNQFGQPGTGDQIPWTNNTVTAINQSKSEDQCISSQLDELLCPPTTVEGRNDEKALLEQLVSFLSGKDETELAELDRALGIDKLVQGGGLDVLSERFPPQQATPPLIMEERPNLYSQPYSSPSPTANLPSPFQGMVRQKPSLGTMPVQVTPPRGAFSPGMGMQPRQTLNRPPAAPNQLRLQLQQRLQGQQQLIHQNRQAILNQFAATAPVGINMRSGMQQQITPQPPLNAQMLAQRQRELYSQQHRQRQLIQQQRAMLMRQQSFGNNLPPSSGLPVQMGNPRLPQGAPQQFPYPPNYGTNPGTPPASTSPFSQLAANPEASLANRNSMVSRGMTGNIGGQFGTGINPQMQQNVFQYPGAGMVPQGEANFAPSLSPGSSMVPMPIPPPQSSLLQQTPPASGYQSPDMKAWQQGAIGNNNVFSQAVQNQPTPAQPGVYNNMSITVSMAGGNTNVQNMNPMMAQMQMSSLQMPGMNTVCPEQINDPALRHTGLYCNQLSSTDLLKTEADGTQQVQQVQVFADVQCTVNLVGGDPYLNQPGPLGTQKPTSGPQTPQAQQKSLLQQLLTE
Chain of SRC-2 (Homo sapiens) (Q15596 2-1464): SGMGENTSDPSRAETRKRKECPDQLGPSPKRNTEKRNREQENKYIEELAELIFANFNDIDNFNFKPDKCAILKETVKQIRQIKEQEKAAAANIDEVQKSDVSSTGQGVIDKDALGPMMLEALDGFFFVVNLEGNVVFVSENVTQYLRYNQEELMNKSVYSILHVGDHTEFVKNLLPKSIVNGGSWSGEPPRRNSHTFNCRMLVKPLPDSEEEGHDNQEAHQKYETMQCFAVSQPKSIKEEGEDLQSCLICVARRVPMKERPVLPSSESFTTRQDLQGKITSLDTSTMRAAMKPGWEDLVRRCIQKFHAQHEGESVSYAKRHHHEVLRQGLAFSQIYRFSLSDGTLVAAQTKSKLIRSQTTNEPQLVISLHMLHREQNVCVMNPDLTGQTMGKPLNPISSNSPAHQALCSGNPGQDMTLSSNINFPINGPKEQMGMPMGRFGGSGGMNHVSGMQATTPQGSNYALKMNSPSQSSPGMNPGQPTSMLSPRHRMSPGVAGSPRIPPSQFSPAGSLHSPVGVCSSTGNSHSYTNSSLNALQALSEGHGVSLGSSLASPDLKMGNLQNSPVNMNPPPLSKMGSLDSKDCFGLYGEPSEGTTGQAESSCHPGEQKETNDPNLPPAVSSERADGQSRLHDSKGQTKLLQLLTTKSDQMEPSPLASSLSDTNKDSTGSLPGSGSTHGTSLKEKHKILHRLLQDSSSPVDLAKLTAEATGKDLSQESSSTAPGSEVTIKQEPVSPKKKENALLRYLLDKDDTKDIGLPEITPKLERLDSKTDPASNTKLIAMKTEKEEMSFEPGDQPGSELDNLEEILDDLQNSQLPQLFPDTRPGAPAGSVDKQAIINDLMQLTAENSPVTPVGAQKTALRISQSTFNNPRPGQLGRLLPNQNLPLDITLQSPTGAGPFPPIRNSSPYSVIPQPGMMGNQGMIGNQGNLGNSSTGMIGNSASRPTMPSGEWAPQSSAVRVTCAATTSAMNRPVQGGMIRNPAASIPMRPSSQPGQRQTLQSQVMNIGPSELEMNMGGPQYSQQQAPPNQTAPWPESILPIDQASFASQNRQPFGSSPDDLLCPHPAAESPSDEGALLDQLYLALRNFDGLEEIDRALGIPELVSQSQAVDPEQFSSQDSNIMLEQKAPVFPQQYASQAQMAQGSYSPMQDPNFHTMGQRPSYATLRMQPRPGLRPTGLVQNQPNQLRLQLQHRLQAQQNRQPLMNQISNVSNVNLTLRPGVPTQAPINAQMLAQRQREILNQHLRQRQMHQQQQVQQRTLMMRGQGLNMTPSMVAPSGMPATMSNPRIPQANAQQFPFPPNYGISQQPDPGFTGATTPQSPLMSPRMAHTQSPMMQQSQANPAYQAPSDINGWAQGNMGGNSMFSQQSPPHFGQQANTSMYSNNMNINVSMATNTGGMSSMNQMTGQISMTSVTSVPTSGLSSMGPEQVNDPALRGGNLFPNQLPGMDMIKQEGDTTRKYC
Chain of estrogen receptor (P03372 whole entry): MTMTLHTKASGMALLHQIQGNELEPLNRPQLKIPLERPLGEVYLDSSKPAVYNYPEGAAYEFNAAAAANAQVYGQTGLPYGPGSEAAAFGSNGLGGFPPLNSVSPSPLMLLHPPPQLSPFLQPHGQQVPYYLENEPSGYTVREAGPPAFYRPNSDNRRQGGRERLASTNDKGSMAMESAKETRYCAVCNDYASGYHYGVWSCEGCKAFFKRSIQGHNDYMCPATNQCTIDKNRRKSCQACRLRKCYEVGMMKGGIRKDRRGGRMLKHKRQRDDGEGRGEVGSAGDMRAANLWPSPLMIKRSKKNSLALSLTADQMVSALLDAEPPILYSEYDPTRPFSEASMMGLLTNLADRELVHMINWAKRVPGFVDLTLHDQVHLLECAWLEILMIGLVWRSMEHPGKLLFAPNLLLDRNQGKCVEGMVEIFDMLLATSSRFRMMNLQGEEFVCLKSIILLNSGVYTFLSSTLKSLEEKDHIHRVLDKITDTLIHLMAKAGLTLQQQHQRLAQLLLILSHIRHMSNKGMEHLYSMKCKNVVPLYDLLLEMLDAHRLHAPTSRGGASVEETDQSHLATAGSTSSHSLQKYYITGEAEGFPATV
Chain of PPARγ (from UniProt P37231) (P37231 whole entry): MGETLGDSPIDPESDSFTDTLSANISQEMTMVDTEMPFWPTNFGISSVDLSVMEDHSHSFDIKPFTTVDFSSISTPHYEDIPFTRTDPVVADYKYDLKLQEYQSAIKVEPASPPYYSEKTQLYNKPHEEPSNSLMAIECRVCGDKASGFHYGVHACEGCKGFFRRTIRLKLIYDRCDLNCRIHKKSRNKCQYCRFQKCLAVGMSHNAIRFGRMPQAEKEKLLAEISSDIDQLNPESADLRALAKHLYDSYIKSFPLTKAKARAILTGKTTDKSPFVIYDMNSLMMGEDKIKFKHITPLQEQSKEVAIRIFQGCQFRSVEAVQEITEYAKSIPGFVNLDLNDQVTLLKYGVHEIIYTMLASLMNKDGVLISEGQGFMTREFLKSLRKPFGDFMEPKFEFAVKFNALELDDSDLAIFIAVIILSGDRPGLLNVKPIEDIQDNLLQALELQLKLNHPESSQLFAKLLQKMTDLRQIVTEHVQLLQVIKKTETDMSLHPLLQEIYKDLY
Chain of estrogen receptor LBD (P03372 311-547): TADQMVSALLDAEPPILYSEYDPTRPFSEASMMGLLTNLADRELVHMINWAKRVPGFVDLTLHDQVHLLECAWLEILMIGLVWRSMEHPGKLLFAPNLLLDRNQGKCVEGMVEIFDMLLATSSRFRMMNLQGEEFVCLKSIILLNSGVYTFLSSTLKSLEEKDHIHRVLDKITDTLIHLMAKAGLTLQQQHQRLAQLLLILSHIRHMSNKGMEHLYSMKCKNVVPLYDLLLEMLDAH

Take estrogen receptor (from UniProt P03372): the dissociation constant Kd is 30 nM in the data set with SRC-1 (Homo sapiens) [1], less than 6 nM with SRC-2 (Homo sapiens) [2], greater than 3000 nM in the data set with SRC-2 (Homo sapiens) [3] and 200 nM in the data set with SRC-2 (Homo sapiens) [4].
For the molecule PPARγ (from UniProt P37231), the dissociation constant (Kd) was 960 nM in the data set with SRC-1 (Homo sapiens) [5] and 34200 nM in the data set with SRC-1 (Homo sapiens) [6].
With “estrogen receptor LBD (from UniProt P03372)”, the Kd in the data set with SRC-1 (Homo sapiens) [1] was 30 nM.
Turning to `COc1ccc2c(c1)c(CC(=O)O)c(C)n2C(=O)c1ccc(Cl)cc1` [IDM, indomethacin], in the data set with PPARγ, the “increase in the affinity of PPARγ for SRC-1” value was 30 fold.

What is called Kd is the free concentration of one partner at which half of the binding sites on the other are occupied at equilibrium, for simple one-to-one binding.
